Results: PMC6287813

Biological target: Rabbit skeletal actin, filamentous (pre-formed actin filament) (rabbit) (UniProt P68135)
Assay: single-filament TIRF microscopy with microfluidics (kymographs); actin filaments tethered at one point through biotinylated spectrin-actin seeds on streptavidin/PLL-PEG-biotin coverslip, stained with 0.15 uM Alexa Fluor 488-phalloidin; AF647-Tpm1.1 flowed in at various concentrations (62.5, 250, 500 nM shown), then washed with buffer only for dissociation; buffer F (5 mM Tris pH 7.8, 100 mM KCl, 1 mM MgCl2, 0.2 mM ATP, 0.2 mM EGTA, 0.1 mM CaCl2, 10 mM DTT, 1 mg/mL BSA)

elongation rate of the Tpm1.1 strand on actin per feed concentration, towards the barbed end (nm s^-1 nM^-1): 0.88 | elongation rate of the Tpm1.1 strand on actin per feed concentration, towards the pointed end (nm s^-1 nM^-1): 1.1 | nucleation time tnuc (Kaplan-Meier estimate, filament of Fig 3C, 62.5 nM Tpm1.1): 1370 s | weighted average elongation rate on one filament, towards the barbed end: 136 nm/s | weighted average elongation rate on one filament, towards the pointed end: 104 nm/s
Substance: Murine tropomyosin isoform Tpm1.1, labelled with Alexa Fluor 647 at Cys-190 (natural protein)
